Experiments:
[1] = molecular target: mouse Jagged 1 (mouse); experiment: ELISA, ligand-Fc coated (method lists rat Jagged 1-Fc), anti-human IgG Fab-specific HRP
[2] = molecular target: mouse Jagged 1 (mouse); experiment: ELISA as for the other curves; sheet and legend say mouse Jagged 1, the method lists rat Jagged 1-Fc as the coated protein
[3] = molecular target: rat Jagged 2 (rJAG2) (rat) (UniProt P97607); experiment: drawn table 'Kd (nM)' of Fab; method not stated; the legend names the matured antibody as 4D11

affinity (ELISA) [1] [nM] | EC50 (read off the curve) [2] [nM] | Kd [3] [nM] | Binder
> 30 | 50 | – | anti-Jagged 32 IgG (antibody, V domains shown) VH: EVQLLESGGGLVQPGGSLRLSCAASGFTFSSYAMSWVRQAPGKGLEWVSSIEQMGWQTYYADSVKGRFTISRDNSKNTLYLQMNSLRAEDTAVYYCAKSAAAFDYWGQGTLVTVSS VL: DIQMTQSPSSLSASVGDRVTITCRASQSISSYLNWYQQKPGKAPKLLIYAASLQSGVPSRFSGSGSGTDFTLTISSLQPEDFATYYCQQTVVAPLTFGQGTKVEIKR
> 30 | – | – | anti-Jagged 13 IgG (antibody, V domains shown) VH: EVQLLESGGGLVQPGGSLRLSCAASGFTFSSYAMSWVRQAPGKGLEWVSSIETQGPTTLYADSVKGRFTISRDNSKNTLYLQMNSLRAEDTAVYYCAKTSSAFDYWGQGTLVTVSS VL: DIQMTQSPSSLSASVGDRVTITCRASQSISSYLNWYQQKPGKAPKLLIYASSLQSGVPSRFSGSGSGTDFTLTIGSLQPEDFATYYCQQNVATPLTFGQGTKVEIKR
– | – | < 1 | 4D11 Fab (Fab, V domains shown) VH: EVQLLESGGGLVQPGGSLRLSCAASGFTFSSYAMSWVRQAPGKGLEWVSSIDPEGRQTYYADSVKGRFTISRDNSKNTLYLQMNSLRAEDTAVYYCAKDIGGRSAFDYWGQGTLVTVSS VL: DIQMTQSPSSLSASVGDRVTITCRASQSISSYLNWYQQKPGKAPKLLIYAASSLQSGVPSRFSGSGSGTDFTLTISSLQPEDFATYYCQQTVVAPPLFGQGTKVEIKR

— patent publication US20190367589A1
